Test results published in IntAct's records for PubMed 16977320.

B1: Ephrin type-A receptor 2 (Mus musculus), Q03145 (parent)
chain: MELRAVGFCLALLWGCALAAAAAQGKEVVLLDFAAMKGELGWLTHPYGKGWDLMQNIMDDMPIYMYSVCNVVSGDQDNWLRTNWVYREEAERIFIELKFTVRDCNSFPGGASSCKETFNLYYAESDVDYGTNFQKRQFTKIDTIAPDEITVSSDFEARNVKLNVEERMVGPLTRKGFYLAFQDIGACVALLSVRVYYKKCPEMLQSLARFPETIAVAVSDTQPLATVAGTCVDHAVVPYGGEGPLMHCTVDGEWLVPIGQCLCQEGYEKVEDACRACSPGFFKSEASESPCLECPEHTLPSTEGATSCQCEEGYFRAPEDPLSMSCTRPPSAPNYLTAIGMGAKVELRWTAPKDTGGRQDIVYSVTCEQCWPESGECGPCEASVRYSEPPHALTRTSVTVSDLEPHMNYTFAVEARNGVSGLVTSRSFRTASVSINQTEPPKVRLEDRSTTSLSVTWSIPVSQQSRVWKYEVTYRKKGDANSYNVRRTEGFSVTLDDLAPDTTYLVQVQALTQEGQGAGSKVHEFQTLSTEGSANMAVIGGVAVGVVLLLVLAGVGLFIHRRRRNLRARQSSEDVRFSKSEQLKPLKTYVDPHTYEDPNQAVLKFTTEIHPSCVARQKVIGAGEFGEVYKGTLKASSGKKEIPVAIKTLKAGYTEKQRVDFLSEASIMGQFSHHNIIRLEGVVSKYKPMMIITEYMENGALDKFLREKDGEFSVLQLVGMLRGIASGMKYLANMNYVHRDLAARNILVNSNLVCKVSDFGLSRVLEDDPEATYTTSGGKIPIRWTAPEAISYRKFTSASDVWSYGIVMWEVMTYGERPYWELSNHEVMKAINDGFRLPTPMDCPSAIYQLMMQCWQQERSRRPKFADIVSILDKLIRAPDSLKTLADFDPRVSIRLPSTSGSEGVPFRTVSEWLESIKMQQYTEHFMVAGYTAIEKVVQMSNEDIKRIGVRLPGHQKRIAYSLLGLKDQVNTVGIPI

Variants of: B1
Conditions: with epha4_mouse Epha4, Q03137
Chain of epha4_mouse Epha4, Q03137 (Q03137 whole entry): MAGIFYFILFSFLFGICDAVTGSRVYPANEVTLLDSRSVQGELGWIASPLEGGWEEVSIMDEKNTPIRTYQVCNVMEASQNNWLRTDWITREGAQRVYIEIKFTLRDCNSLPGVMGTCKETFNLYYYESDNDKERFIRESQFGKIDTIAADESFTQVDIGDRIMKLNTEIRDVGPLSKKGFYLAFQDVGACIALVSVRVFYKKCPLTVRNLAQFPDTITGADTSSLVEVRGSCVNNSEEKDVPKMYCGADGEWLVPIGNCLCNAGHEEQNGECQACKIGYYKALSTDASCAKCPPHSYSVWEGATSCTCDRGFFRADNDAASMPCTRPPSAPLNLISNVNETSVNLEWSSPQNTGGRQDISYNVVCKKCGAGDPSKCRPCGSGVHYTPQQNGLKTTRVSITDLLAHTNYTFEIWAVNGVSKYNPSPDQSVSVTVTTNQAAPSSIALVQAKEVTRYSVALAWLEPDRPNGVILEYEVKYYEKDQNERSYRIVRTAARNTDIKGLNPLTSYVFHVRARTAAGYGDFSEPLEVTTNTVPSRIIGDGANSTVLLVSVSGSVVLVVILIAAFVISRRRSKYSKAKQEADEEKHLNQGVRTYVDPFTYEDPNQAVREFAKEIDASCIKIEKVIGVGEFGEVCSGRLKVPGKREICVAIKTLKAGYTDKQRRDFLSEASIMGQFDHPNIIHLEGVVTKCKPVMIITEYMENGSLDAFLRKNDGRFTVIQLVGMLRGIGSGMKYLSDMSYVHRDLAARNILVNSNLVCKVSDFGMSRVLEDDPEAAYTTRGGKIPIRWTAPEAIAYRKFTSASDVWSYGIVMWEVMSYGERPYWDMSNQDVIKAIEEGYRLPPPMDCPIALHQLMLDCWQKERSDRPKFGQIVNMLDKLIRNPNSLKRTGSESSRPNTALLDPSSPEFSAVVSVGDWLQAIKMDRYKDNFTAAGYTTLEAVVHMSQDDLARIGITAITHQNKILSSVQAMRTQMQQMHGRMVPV

Variant	effect of a mutation on the interaction
Y595F	disrupting interaction

Variants of: B1
Conditions: with epha4_mouse Epha4, Q03137
Remark: another data set of the same source

Variant	effect of a mutation on the interaction
Y589F	disrupting interaction
